Results reported in patent publication US6867177B2, “CD39/ECTO-adpase as a treatment for thrombotic and ischemic disorders” (The Trustees of Columbia University in the City of New York, priority 1999, dated 2005).

Tests used:
murine platelets = test: Murine platelet aggregation (aggregometry of platelet-rich plasma from treated mice); type: cell-based; conditions: for platelet aggregation response to ADP: ADP 2.5 or 10 μM, CD39 4 mg/kg, aspirin 5 mg/kg; for platelet aggregation response to ADP / platelet aggregation response to collagen / platelet aggregation response to sodium arachidonate: agent given to mice 45 minutes prior to harvest of blood; for platelet aggregation response to collagen: collagen 2.5 or 10 μg/mL; for platelet aggregation response to sodium arachidonate: sodium arachidonate 0.1 mM
Protocol: Preparation of Murine Platelets: Mice (untreated, treated with 4 mg/kg CD39, or treated with […]) were anesthetized and heparinized (10 U/g), prior to blood collection via cardiac puncture performed with 22 gauge, 1 cc syringe. Immediately following collection, 80 μl 3.8% trisodium citrate was added to each mL of blood. Blood from 6-8 mice was pooled in a 15 mL tube centrifuge tube (Flacon, polypropylene). Platelet-rich plasma (PRP) was prepared with an initial whole blood centrifugation (900 g, 3 min, 20° C., no brake), and a second centrifugation of PRP (100 g, 2 min) to eliminate residual erythrocytes and leukocytes. The stock suspension of PRP was maintained at room temperature. PRP platelet counts were 400-700×10^3 platelets per μl.
Platelet aggregation studies: PRP (200 μl) was pre-incubated (3 min, 37° C.) with 100 μl Tris-buffered saline (TSG) buffer (15 mM Tris, 134 mM NaCl, 5 mM glucose, pH 7.4) in an aggregometer cuvette (Lumiaggregometer; Chrono-Log, Havertown, Pa.). After the 3 min, 37° C. preincubation ≈5.0 C 10^5 platelets, platelet agonist (ADP, collagen, sodium arachidonate) were added at the concentration indicated. Total volumes were adjusted to 300 μl with TSG buffer, and the aggregation response recorded for 2-4 min. Agonists were prepared as 100× solution: ADP was in TSG buffer, collagen in acidified isotonic glucose ([…], Munchen, Germany), and sodium arachidonate in 0.85% saline. All aggregation studies were completed within two hours of blood collection.
Quantitation of Platelet Aggregation: Area under the curve was estimated by multiplying the height of the curve with its width at half height. The former was measured form pre-simulation baseline to the middle of the highest point of the curve. However, when curves were less than ⅓ of maximal height, the lowest point of the shape change portion of the curve was considered baseline. […] These criteria underestimate large aggregation responses, and overestimate small ones. Thus we knowingly underestimated the effects of compounds with great inhibitory capacity. This approach was preferred over one that could have overemphasized inhibitory potential.
Murine platelet aggregation: C57/6J BL mice (6-8 weeks) were obtained from Jackson Laboratories, Bar Harbor, Me.). Untreated mice, and mice treated with 4 mg/kg CD39, with 5 mg/kg aspirin or phosphate buffered saline, were anesthetized and heparinized (10 U/g), prior to blood collection via cardiac puncture; 80 μL 3.8% trisodium citrate was added to each mL of blood. Samples from 6-8 mice were pooled and platelet-rich plasma (PRP) prepared by centrifugation (900 g, 3 min, 20° C., followed by 100 g, 2 min to eliminate residual erythrocytes and leukocytes). PRP contained 400-700×10^3 platelets per μL. PRP (200 μL) was preincubated (3 min, 37° C.) with 100 μL Tris-buffered saline (TSG) buffer (15 mM Tris, 134 mM NaCl, 5 mM glucose, pH 7.4)^11,23,24 in an aggregometer cuvette (Lumiaggregometer; Chrono-Log, Havertown, Pa.). Platelet agonists (ADP, collagen (Hormon Chemie, Munchen, Germany), or sodium arachidonate (Nu-Check Prep, Elysian, Minn.)) were added at the final concentrations indicated. Aggregation responses were recorded for 2-4 min, and expressed as area under the curve (height times width at ½ height). All experiments were completed within two hours of blood collection.

[1] = Measurement of bleeding time (tail vein incision); type: in vivo; conditions: mice not subjected to other manipulation; intravenous
Protocol: Measurement of Bleeding Time: Bleeding times were measured in mice which were not subjected to experimental manipulation other than by receiving either vehicle (saline) or CD39 prepared in physiological saline and administered intravenously 5 minutes prior to the experiment. Following anesthesia, a standardized incision was made on the central dorsal tail vein, and the tail was then immersed in physiological saline at 37.5° C.

[2] = tested on: stroke (focal cerebral ischemia and reperfusion); conditions: for postischemic cerebral perfusion (cerebral blood flow): laser Doppler, ischemic vs nonischemic hemisphere; for cerebral infarct volume: preoperatively administered, CD39 4 and 8 mg/kg, aspirin 5 mg/kg, 24 hours
[3] = tested on: lung ischemia and reperfusion; test: Mouse model of lung ischemia and reperfusion; type: in vivo, mice; conditions: CD39 8 mg/kg; 1 hour ischemia, 2 hour reperfusion, observation 1 hour; four experiments
Protocol: In these studies, murine ischemic reperfusion model was used. In the mouse model of lung ischemia, mice were initially anesthetized intraperitoneal with 0.1 mg/mouse weight (g) of ketamine and 0.01 mg/mouse weight (g) of xylazine, following by intraperitoneal continuous infusion of one third of the initial dose per hour using a syringe pump (model 100 series, KD Scientific Inc. Mass.). After ensuring appropriate depth of anesthesia, mice were intubated via tracheostomy and placed on a Harvard ventilator (tidal volume=0.75 mL, respiratory rate=120/min) with room air, followed by bilateral thoracotomy. The left hilum was cross-clamped for a period of 1 hour after which the cross-clamp was released. Reperfusion proceeded for 2 hours.
For all experiments, the surgical operator was blinded by a colleague in the laboratory to the specific substance being injected (vehicle or CD39, 8 mg/kg). Experimental procedures were as follows. […]

[4] = cited from earlier work
platelets = conditions: cited from earlier work
[5] = peptide affinity purified from CHO conditioned medium; cited from earlier work
[6] = treatment either prior to, or up to 3 hours following stroke
[7] = control, CD39-/- and reconstituted CD39-/- mice

## CC(=O)Oc1ccccc1C(=O)O [aspirin, reference compound]
Murine platelets
  platelet aggregation response to ADP: strongly aggregated
  platelet aggregation response to collagen: strongly aggregated
  platelet aggregation response to sodium arachidonate: abrogated
Murine platelets; any collagen dose
  platelet reactivity to collagen at any collagen dose: little effect
[1]
  bleeding time: markedly increased
[2]
  postischemic cerebral perfusion (cerebral blood flow): did not improve
  cerebral infarct volume: tendency to decrease cerebral infarct volume, the effect was not statistically significant

B1: CD39: recombinant soluble CD39 (SEQ ID NO:2): four apyrase domains, lacking the two transmembrane regions, IL-2 leader, expressed in CHO cells (protein, listed as Homo sapiens)
chain: TQNKALPENVKYGIVLDAGSSHTSLYIYKWPAEKENDTGVVHQVEECRVKGPGISKFVQKVNEIGIYLTDCMERAREVIPRSQHQETPVYLGATAGMRLLRMESEELADRVLDVVERSLSNYPFDFQGARIITGQEEGAYGWITINYLLGKFSQKTRWFSIVPYETNNQETFGALDLGGASTQVTFVPQNQTIESPDNALQFRLYGKDYNVYTHSFLCYGKDQALWQKLAKDIQVASNEILRDPCFHPGYKKVVNVSDLYKTPCTKRFEMTLPFQQFEIQGIGNYQQCHQSILELFNTSYCPYSQCAFNGIFLPPLQGDFGAFSAFYFVMKFLNLTSEKVSQEKVTEMMKKFCAQPWEEIKTSYAGVKEKYLSEYCFSGTYILSLLLQGYHFTADSWEHIHFIGKIQGSDAGWTLGYMLNLTNMIPAEQPLSTPLSHST
Murine platelets
  platelet aggregation response to ADP: completely abrogated
  platelet aggregation response to collagen: attenuated
  platelet aggregation response to sodium arachidonate: did not inhibit the initial activation phase of platelet aggregation to arachidonate, but rapidly disaggregated platelets during the initial recruitment phase
Murine platelets; higher doses of collagen
  platelet reactivity to higher doses of collagen: do respond
Murine platelets; low-dose collagen
  platelet reactivity to low-dose collagen: inhibited
[1]
  bleeding time: dose-dependent increase
[3]
  mouse survival following functional removal of the contralateral (nonischemic) lung: 100%
[2]; administered three hours after onset of stroke (8 mg/kg)
  cerebroprotection: significant cerebroprotection
[2]; intravenously injected, 111In-labeled platelets, 24 hours of reperfusion
  platelet accumulation in the ipsilateral cerebral hemisphere: inhibited
[2]; intravenously injected, fibrin immunoblot
  fibrin accumulation in the ipsilateral cerebral hemisphere: inhibited
[2]
  postischemic cerebral perfusion (cerebral blood flow): improved
  cerebral infarct volume: dose-dependent diminution
[2]; mouse, in vivo
  intracerebral hemorrhage: without an increase
[2]; [6]
  mortality: reduced
  neurological deficit: reduced
Stroke in CD39-/- mice; CD39-/- mice reconstituted with CD39, 24 hours
  cerebral infarct volume: markedly diminished
Stroke in CD39-/- mice; [7]
  intracerebral hemorrhage: did not differ between groups
  neurological deficit scores: did not differ between groups
  overall mortality: did not differ between groups
[4]
  elimination half-time in mice: 2 days
platelets
  ADP-induced platelet aggregation in vitro: blocked
[5]
  apyrase activity: potent apyrase activity
